Experimental data from patent CN1948343A (BEIJING ANBOTE GENE ENGINEERIN, dated 2007).

Experiments:
重组人TNF-α [1] = molecular target: T1, 重组人TNF-α (human, UniProt P01375 77-233); assay: cell-based or functional assay
重组人TNF-α [2] = molecular target: T1, 重组人TNF-α; assay: competition ELISA: inhibition of binding of 1 μg/ml TNF-α to coated L929 TNF receptor extract

T1 sequence (P01375 77-233 limits assumed): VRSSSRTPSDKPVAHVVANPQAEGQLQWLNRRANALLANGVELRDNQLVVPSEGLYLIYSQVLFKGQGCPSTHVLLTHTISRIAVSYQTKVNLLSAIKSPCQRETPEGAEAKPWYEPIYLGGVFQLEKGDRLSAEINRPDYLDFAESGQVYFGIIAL

| MTT法: 抑制TNF-α对L929细胞的细胞毒作用, 50%抑制的浓度(IC50) (重组人TNF-α [1]) [nM] | IC50 (重组人TNF-α [2]) [nM] | MTT法: 抑制TNF-α对L929细胞的细胞毒作用, 50%的抑制浓度(IC50) (重组人TNF-α [1]) [nM] | Binder |
| --- | --- | --- | --- |
| 40 | 3200 |  | 抗TNF-α鼠源单链抗体 TNF-scFv (scFv, part only; not given: C-terminal tail of construct, part only) scFv, part: QIQLVQSGPELKKPGETVKISCKASGYTFTHYGMNWVKQAPGKGLKWMGWINTYTGEPTYADDFKEHFAFSLETSASTVFLQINNLKNEDTATYFCARERGDAMDYWGQGTSVTVSSTSGGGGSGGGGSGGGGSSRSIVMTQTPKFLLVSAGDRVTITCTASQSVSNDVVWYQQKPGQSPKMLMYSAFNRYTGVPDRFTGRGYGTDFTFTISSVQAEDLAVYFCQQDYNSPRTFGGGTKLEIK |
|  | ~400 | 2.5 | 抗TNF-α基因工程四价单链抗体 TNF-TeAb (scFv) QIQLVQSGPELKKPGETVKISCKASGYTFTHYGMNWVKQAPGKGLKWMGWINTYTGEPTYADDFKEHFAFSLETSASTVFLQINNLKNEDTATYFCARERGDAMDYWGQGTSVTVSSTSGGGGSGGGGSGGGGSSRSIVMTQTPKFLLVSAGDRVTITCTASQSVSNDVVWYQQKPGQSPKMLMYSAFNRYTGVPDRFTGRGYGTDFTFTISSVQAEDLAVYFCQQDYNSPRTFGGGTKLEIK |
